B1: C. crescentus RNase E catalytic domain, residues 1–575, N-terminally 6xHis tagged (domain or fragment, Caulobacter crescentus, UniProt Q9A749 1-575, looked up)
chain: MSKKMLIDAAHAEETRVVVVDGTRVEEFDFESQTRKQLRGNIYLAKVTRVEPSLQAAFIEYGGNRHGFLAFNEIHPDYYQIPVADREALMRDDSGDDEDDTPISRRASGGDDEDDVNGGDRAVDDDDDDVEEELARRKRRLMRKYKIQEVIRRRQIMLVQVVKEERGNKGAALTTYLSLAGRYGVLMPNTARGGGISRKITAVTDRKRLKSVVQSLDVPQGMGLIVRTAGAKRTKAEIKRDYEYLLRLWENIRENTLHSIAPALIYEEEDLVKRAIRDMYDKDLDGIWVEGDAGYKEARDFMRMLMPSQAKKVFNYRDPTPLFVKNKIEDHLAQIYSPVVPLRSGGYLVINQTEALVAIDVNSGKATRERNIEATALKTNCEAAEEAARQLRLRDLAGLIVIDFIDMDEAKNNRTVEKVLKDALKDDRARIQMGKISGFGLMEISRQRRRTGVLEGTTHVCEHCEGTGRVRSVESSALAALRAVEAEALKGSGSVILKVSRSVGLYILNEKRDYLQRLLTTHGLFVSVVVDDSLHAGDQEIERTELGERIAVAPPPFVEEDDDFDPNAYDDEEEE
notes: tetramer by AUC; also called CcNTD
B2: recombinant RNase D with an N-terminal hexa-histidine tag (enzyme, Caulobacter crescentus (CB15), UniProt Q9A7L8 1-389, looked up)
chain: MKLITTTAELAAFCNGLAGEPFVAVDTEFMRETTYWPKLCLIQVASPTQEAVIDPLADNIDLEPLLVVMRDERILKVFHAARQDVEIFNNLKAMPKPLFDTQVAGMAAGFGEQIAYDALVRQMLRIEIDKSSRFTDWARRPLTDAQLSYALADVTHLAKLFPILRERLETSGRLAWVEEEMTAISDPAAYDVDPEKAWRRLRPRKTAPKYLAVFKAVAAWRERTAQNRDQPRGRILKDEAIDELATQTPGNLEALNNLRGVPKGFGGSKFGPDLLAAIKDALADPEGYAPVVDKPGPPPPQNAGAVVELLKVLLKARAEEAGVASKLIATVSDLEKIAADDNATTPALTGWRREAFGSDALKIKRGELALVLDGARVRVVEVRRAPKND
notes: ribonuclease D; the RNase D gene (cc1704) amplified from C. crescentus (CB15) genomic DNA into pETDuet-1; also called 6xHis-tagged RNase D; not shown: His6, N-terminal, kept
B3: recombinantly expressed and purified RhlB (enzyme, Caulobacter crescentus, UniProt Q9A779 1-517, looked up)
chain: MTEFTDLGLSPTTLQAVADTGYTTATPIQAQAIPVALAGQDVLGIAQTGTGKTAAFTLPLIDRLQSGRAKARMPRALVIAPTRELADQVAASFEKYAKGTKLSWALLIGGVSFGDQEKKLDRGVDVLIATPGRLLDHFERGKLLMTGVQFLVVDEADRMLDMGFIPDIERIFKMTPPKKQTLFFSATMPPEITRLTKQFLRDPVRIEVARPATTNANITQLLVKVPSSDPKAKRLALRALIEKAGIETGIVFCNRKTEVDIVAKSLKVHGYDAAPIHGDLDQTQRMKTLADFRSGALKILVASDVAARGLDIPAVSHVFNYDVPHHADDYVHRIGRTGRAGRTGITYMLVTPADDKGFDKVIKLIGSTPDEEKLDLDYSNAVTVKREGDRKRGGRDRDRGERGERSERPARGRGRGRERAEETVEAPAEAVAEIVDTPAMAEERPARERRPRREREPKAAAPAPTAVEAERPARAERPERPVRGVQPVRDRDDDDRRVVGFGSDVPAFLARPPRGAK
notes: DEAD-box RNA helicase RhlB (cc1847) of Caulobacter crescentus; monomeric in solution; source: recombinantly expressed and purified

Series [1] deals with fragment of C. crescentus RNase E containing the S1 and 5′-sensor sub-domains, residues 1–274 (Caulobacter crescentus). The experiment in a line: AUC; sedimentation velocity of the co-expressed, co-purified CcNTD(1–274)–RhlB complex at 2 mg/ml in 20-mM Tris pH 7.5, 200-mM NaCl, 20°C, 50 000 rpm.
Series [2] deals with the molecule itself. Description: AUC; sedimentation velocity, CcNTD(1–575) alone at 2 mg/ml in NTD buffer, 20°C, 40 000 rpm.
Series [3] concerns the molecule itself. Description: AUC; recombinant RNase D alone; single species of 85.9 kDa.
The target of series [4] is B1. Description: AUC; sedimentation velocity of the SEC fractions of the CcNTD(1–575)–RhlB complex; continuous molar mass distribution. The settings on record: both partners purified.

As usually defined, the stoichiometry N is the number of molecules, sites or subunits per partner or assembly.

As for “RhlB co-expressed with CcNTD_(1–274) (enzyme)”, the stoichiometry N in series [1] stood at 1. Consider B1, for which, in series [2], the “stoichiometry N” value is 4. In the case of B2, in series [3], the “stoichiometry N” value amounted to 2.

As for B3, the “stoichiometry N” value in series [4] was 2 RhlB monomers per CcNTD_(1–575) tetramer.

The values are drawn from article PMC4245959, “Molecular recognition of RhlB and RNase D in the Caulobacter crescentus RNA degradosome” (Nucleic Acids Research, 2014).
